Starred links: 1 amine or outer side, 2 acyl side, 3 side chain; linkers in the order of their positions; H or OH if unused. Non-standard residues stand in square brackets, D forms with d. Residues, ends and D or L forms follow the SMILES beside them. *: point of attachment. Doxorubicin(3'-N) = COc1cccc2c1C(=O)c1c(O)c3c(c(O)c1C2=O)C[C@@](O)(C(=O)CO)C[C@@H]3O[C@H]1C[C@H](N*)[C@H](O)[C@H](C)O1; PABC = O=C(OCc1ccc(N[*:1])cc1)[*:2]
Legend:
[1] = tested on: MCF7 breast carcinoma cells; assay: Cellular accumulation of doxorubicin and Ac-DEVD-PABC-doxorubicin (fluorescence); format: cell-based, human; conditions: 10 μM, 0 to 2 h at 37° C.
Description: (§1) FIG. 1. Cellular accumulation of caspase cleavable prodrug Ac-DEVD-PABC-Doxorubicin in SK-BR-3 and MCF7 cells. Uptake of doxorubicin was estimated from a standard curve prepared using known quantities of doxorubicin that were added to the previously untreated cells.
(§2) SK-BR-3 and MCF7 breast carcinoma cells (American Type Culture Collection (ATCC), Rockville, Md.) were cultured in Dulbecco's modified Eagle's medium:Ham's nutrient F-12 (50:50) supplemented with […] glutamine, 100 units/mL penicillin, […] streptomycin (Gibco BRL, Grand Island, N.Y.), and 10% (w/v) bovine fetal serum (Hyclone, Logan, Utah) (cell media) at 37° C., 5% CO2. Adherantly growing cells were detached by treatment with phosphate-buffered saline containing 0.05% trypsin, 0.6 mM EDTA (5 min) and then resuspended at 10^6 cells per mL in fresh cell media. Cells were either used directly (“untreated”) or supplemented with doxorubicin or Ac-DEVD-PABC-doxorubicin into a final concentration of 10 μM. […] Fluorescence measurements were then undertaken using a fluorescent plate reader (Fluoroskan, Helsinki, Finland) with absorption and emission wavelengths of 485 and 590 nm respectively. Uptake of doxorubicin was estimated from a standard curve prepared using known quantities of doxorubicin that were added to the previously untreated cells.

[2] = tested on: SK-BR-3 breast carcinoma cells; assay: as above; format: cell-based, human; conditions: SK-BR-3 cells, 10 μM, 0 to 2 h at 37° C.
Description: as §1, §2

[3] = molecular target: T1, recombinant human caspase 3 (Homo sapiens, UniProt P42574); assay: Activation of Ac-DEVD-PABC-taxol by caspase 3 (HPLC); format: biochemical
T1 construct: purchased Calbiochem
T1 sequence (P42574 29-175 limits assumed): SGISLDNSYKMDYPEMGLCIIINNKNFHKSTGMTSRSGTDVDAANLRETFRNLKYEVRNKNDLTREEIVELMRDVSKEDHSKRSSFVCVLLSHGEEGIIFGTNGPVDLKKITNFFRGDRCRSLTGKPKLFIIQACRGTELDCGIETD
T1 sequence (P42574 176-277 limits assumed): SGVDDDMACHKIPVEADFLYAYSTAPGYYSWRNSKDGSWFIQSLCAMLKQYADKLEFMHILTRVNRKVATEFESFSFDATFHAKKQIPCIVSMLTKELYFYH
Description: Ac-DEVD-PABC-taxol (35 μM) was incubated with 1 ng recombinant human caspase 3 (Calbiochem) in the presence or absence of the caspase 3 inhibitor, Z-DEVD-FMK (400 μM) (Calbiochem) in phosphate-buffered saline containing 5% (v/v) dimethyl sulfoxide and 45 mM DTT in a total reaction volume of 700 μL. A control reaction was performed in which caspase 3 and inhibitor were omitted. Reactions were incubated for 0 to 2 h at 37° C. and then frozen in dry ice. Reactions were then analyzed by reverse phase HPLC using a Microsorb-MV C18 reverse-phase column (4.6 mm internal diameter×250 mm length, 5 μm particle size, 100 Å pore size) (Rainin) under isocratic conditions. 0.1% (v/v) TFA, 46% (v/v) acetonitrile at a now rate of 1.5 mL/min whilst monitoring the absorbance at 254 nm. The retention times for taxol and Ac-DEVD-PABC-taxol were 13.3 min 10.4 min, respectively.

[4] = molecular target: T2, recombinant commercial caspase 3 (Homo sapiens, UniProt P42574); assay: Hydrolysis of Ac-DEVD-pna by caspase 3; format: biochemical
T2 construct: purchased
T2 sequence (P42574 29-175 limits assumed): T1 sequence (P42574 29-175 limits assumed)
T2 sequence (P42574 176-277 limits assumed): T1 sequence (P42574 176-277 limits assumed)
Description: (§3) The most favorable substrates for caspases 2, 3 and 7 are DEHD (SEQ ID NO:8), DEVD (SEQ ID NO:3) and DEVD (SEQ ID NO:3) respectively. These sequences are very poor substrates for granzyme B which has the preferred substrate IEPD (SEQ ID NO:13) (Thornberry et al., (1997) supra) and for proinflammatory caspases (caspases 1, 4, 5, 11, 12, 13) which have a preference for a large hydrophobic residue at S4 (caspase 1 WEHD (SEQ ID NO:6), caspase 4 (W/L)EHD, caspase 5 (W/L)EHD).

[5] = molecular target: granzyme B (Homo sapiens, UniProt P10144); assay: Cleavage of Ac-DEVD-pna by granzyme B; format: biochemical
Description: as §3

granzyme B, sequence (P10144 21-247, species assumed): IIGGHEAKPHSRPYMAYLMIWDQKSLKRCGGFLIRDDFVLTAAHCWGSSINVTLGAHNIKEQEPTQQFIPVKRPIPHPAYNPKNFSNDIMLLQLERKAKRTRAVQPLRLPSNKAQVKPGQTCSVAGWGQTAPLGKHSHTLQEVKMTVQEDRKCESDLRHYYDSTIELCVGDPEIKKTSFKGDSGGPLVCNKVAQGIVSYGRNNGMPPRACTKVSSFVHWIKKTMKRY

COc1cccc2c1C(=O)c1c(O)c3c(c(O)c1C2=O)C[C@@](O)(C(=O)CO)C[C@@H]3O[C@H]1C[C@H](NC(=O)OCc2ccc(NC(=O)[C@H](CC(=O)O)NC(=O)[C@@H](NC(=O)[C@H](CCC(=O)O)NC(=O)[C@H](CC(=O)O)NC(C)=O)C(C)C)cc2)[C@H](O)[C@H](C)O1 [Ac-DEVD-PABC-Doxorubicin, Ac-DEVD-PABC-doxorubicin] (Ac-DEVD[PABC]-{Doxorubicin(3'-N)})
accumulation inside cells [1]: did not
accumulation inside cells [2]: did not

Ac-DEVD-PABC-paclitaxel [Ac-DEVD-PABC-taxol]
activation by caspase 3 (conversion to taxol) ([3]; 35 μM prodrug, 1 ng caspase 3): efficiently activated
Conversion (%) ([3]; Caspase 3 + inhibitor (Z-DEVD-FMK 400 μM), incubation time 0 min): 0%
Conversion (%) ([3]; Caspase 3 + inhibitor (Z-DEVD-FMK 400 μM), incubation time 30 min): 0%
Conversion (%) ([3]; Caspase 3 + inhibitor (Z-DEVD-FMK 400 μM), incubation time 120 min): 0%
Conversion (%) ([3]; Caspase 3, incubation time 0 min): 0%
Conversion (%) ([3]; Caspase 3, incubation time 30 min): 65%
Conversion (%) ([3]; Caspase 3, incubation time 120 min): 100%

acetyl-L-Asp-L-Glu-L-Val-L-Asp-p-nitroanilide [Ac-DEVD-pna]
hydrolysis by caspase 3 [4]: readily hydrolyzed
cleavage by granzyme B [5]: no detectable cleavage

From patent US20070104719A1, “Caspase Activated Prodrugs Therapy” (Genentech, Inc., priority 2000, published 2007)
